Reference: PMC10696467 (The Journal of Biological Chemistry, 2023)

B1: speckle-type POZ protein (SPOP) WT, residues 28-359 (domain or fragment)
chain: KVVKFSYMWTINNFSFCREEMGEVIKSSTFSSGANDKLKWCLRVNPKGLDEESKDYLSLYLLLVSCPKSEVRAKFKFSILNAKGEETKAMESQRAYRFVQGKDWGFKKFIRRDFLLDEANGLLPDDKLTLFCEVSVVQDSVNISGQNTMNMVKVPECRLADELGGLWENSRFTDCCLCVAGQEFQAHKAILAARSPVFSAMFEHEMEESKKNRVEINDVEPEVFKEMMCFIYTGKAPNLDKMADDLLAAADKYALERLKVMCEDALCSNLSVENAAEILILADLHSADQLKTQAVDFINYHASDVLETSGWKSMVVSHPHLVAEAYRSLASA
B2: SPOP R354H, residues 28-359 (domain or fragment)
chain: KVVKFSYMWTINNFSFCREEMGEVIKSSTFSSGANDKLKWCLRVNPKGLDEESKDYLSLYLLLVSCPKSEVRAKFKFSILNAKGEETKAMESQRAYRFVQGKDWGFKKFIRRDFLLDEANGLLPDDKLTLFCEVSVVQDSVNISGQNTMNMVKVPECRLADELGGLWENSRFTDCCLCVAGQEFQAHKAILAARSPVFSAMFEHEMEESKKNRVEINDVEPEVFKEMMCFIYTGKAPNLDKMADDLLAAADKYALERLKVMCEDALCSNLSVENAAEILILADLHSADQLKTQAVDFINYHASDVLETSGWKSMVVSHPHLVAEAYHSLASA

Tests used:
[1] = target: the molecule itself; assay: composite-gradient multiangle light scattering
[2] = target: SPOP mutBACK (Y353E), residues 28-359 (UniProt O43791 28-359, Y353E); assay: fluorescence polarisation
[3] = target: B2; assay: fluorescence polarisation
[4] = target: B1; assay: fluorescence polarisation
[5] = target: SPOP R221C, residues 28-359 (UniProt O43791 28-359, R221C); assay: fluorescence polarisation

| Kd [2] [µM] | Kd [3] [µM] | Kd [4] [µM] | Kd [5] [µM] | Binder | Kd [1] [µM] |
| --- | --- | --- | --- | --- | --- |
|  |  |  |  | B1 | 2.7 |
|  |  |  |  | B2 | 26.9 |
| 4.3 | 5.1 | 9.8 | 5.9 | ENLACDEVTSTTSSSST (HELM PEPTIDE1{[O=C1OC2(c3ccc(O)cc3Oc3cc(O)ccc32)c2ccc(C(=O)[*:2])cc21].E.N.L.A.C.D.E.V.T.S.T.T.S.S.S.S.T.[am]}$$$$V2.0; SMILES CC(C)C[C@H](NC(=O)[C@H](CC(N)=O)NC(=O)[C@H](CCC(=O)O)NC(=O)c1ccc2c(c1)C(=O)OC21c2ccc(O)cc2Oc2cc(O)ccc21)C(=O)N[C@@H](C)C(=O)N[C@@H](CS)C(=O)N[C@@H](CC(=O)O)C(=O)N[C@@H](CCC(=O)O)C(=O)N[C@H](C(=O)N[C@H](C(=O)N[C@@H](CO)C(=O)N[C@H](C(=O)N[C@H](C(=O)N[C@@H](CO)C(=O)N[C@@H](CO)C(=O)N[C@@H](CO)C(=O)N[C@@H](CO)C(=O)N[C@H](C(N)=O)[C@@H](C)O)[C@@H](C)O)[C@@H](C)O)[C@@H](C)O)C(C)C) [fPuc peptide (fluorescently labeled SPOP-binding motif from the substrate Puckered)] |  |
|  | 3 | 1.2 | 3.2 | C-terminal intrinsically disordered region of DAXX (cDAXX), fluorescently labeled (domain or fragment, fluorescently labeled (fluorescently tagged cDAXX construct; the labeling methods give Rhodamine Red, N-terminal labeling, for cDAXX)) SPMSSLQISNEKNLEPGKQISRSSGEQQNKGRIVSPSLLSEEPLAPSSIDAESNGEQPEELTLEEESPVSQLFELEIEALPLDTPSSVETDISSSRKQSEEPFTTVLENGAGMVSSTSFNGGVSPHNWGDSGPPCKKSRKEKKQTGSGPLGNSYVERQRSVHEKNGKKICTLPSPPSPLASLAPVADSSTRVDSPSHGLVTSSLCIPSPARLSQTPHSQPPRPGTCKTSVATQCDPEEIIVLSDSD |  |
